pIC50, pKd, pKi: −log10 of the molar value.

These results are taken from publication PMC8769072, “Proteome‐scale mapping of binding sites in the unstructured regions of the human proteome” (Molecular Systems Biology, 2022).

Experiment [1] deals with importin subunit alpha‐3 (KPNA4) ARM domain (UniProt O00629). Briefly: FP competition against FITC-NCOR2 1307-1322 probe. The conditions noted are these: reference: unphosphorylated peptide.
Experiment [2] deals with MDM2 SWIB, cleaved from the His‐GST tag, for affinity measurements (human). The experiment can be described thus: fluorescence polarisation; competition: unlabelled peptide in serial dilution displaces a FITC-labelled probe peptide from the bait domain (master mix with protein at four times the KD of the probe, 10 nM probe, 2 mM DTT); 50 mM KPO4 or NaPO4 pH 7.5; triplicates; probe for KEAP1 Kelch: FITC-NFE2L1 228-243, other probes in Dataset EV6. (In general: In fluorescence polarisation assays a small probe gives low polarisation when free and higher when bound to something large.)

Experiment [3] addresses FITC-labelled phospho-RAF1 255-264 probe peptide (FITC-QRSTpSTPNVH) (human). Briefly: fluorescence polarisation; saturation: protein in serial dilution added to FITC-labelled probe peptide (master mix with 10 nM probe and 2 mM DTT), 50 mM KPO4 or NaPO4 pH 7.5; fitted to a quadratic equation.
Experiment [4] concerns the target KPNA4 ARM (importin subunit alpha-3, armadillo repeat domain) (human) (UniProt O00629). Briefly: fluorescence polarisation; competition: unlabelled peptide in serial dilution against KPNA4 ARM (master mix at four times the KD) with the probe FITC-Myc(320-328), probe of the major pocket; 50 mM KPO4 pH 7.5; Ki calculated from IC50.
For experiment [5] the target is unchanged. The experiment can be described thus: fluorescence polarisation; competition: unlabelled peptide in serial dilution against KPNA4 ARM (master mix at four times the KD) with the probe FITC-NCOR2(1307-1322), probe of the minor pocket; 50 mM KPO4 pH 7.5; Ki calculated from IC50.
Experiment [6] has as its target FITC-labelled NCOR2 1307-1322 probe peptide (FITC-…) (human). Briefly: fluorescence polarisation; saturation: protein in serial dilution added to FITC-labelled probe peptide (master mix with 10 nM probe and 2 mM DTT), 50 mM KPO4 or NaPO4 pH 7.5; fitted to a quadratic equation.
For experiment [7], the target named is FITC-labelled Myc 320-328 probe peptide (FITC-…) (human). Described as above.

Turning to “NCOR1 class III NLS peptide (from UniProt O75376) pS1246 peptide”, the “binding against the reference” value in experiment [1] (sites S1246) is “weaker”.

A word on the pKi: it is the Ki on a negative log10 scale, so that one unit is a factor of ten. “NUMB_(615–630) peptide, synthetic (from UniProt P49757 615-630)”: the pKi in experiment [2] is 5.48.

The pKd is the negative decadic logarithm of the Kd, by convention in mol/L. A higher pKd goes with a low Kd. “14-3-3 protein sigma (SFN 14-3-3) (from UniProt P31947 1-248) (domain or fragment)” showed a pKd in experiment [3] of 3.28.

Usually pIC50 stands for −log10 of the IC50, conventionally taken in molar units. For SPRTN 400-416 peptide, the pIC50 in experiment [4] was 6.59.

Consider “NCOR1 class III NLS peptide (from UniProt O75376) pY1247 peptide”, for which the “binding against the reference” value in experiment [1] (sites Y1247) is listed as “same”.

Regarding ZNF532 1139-1154 peptide, in experiment [5], the pIC50 is 5.89.

“KPNA4 ARM domain, MBP-tagged (from UniProt O00629 1-521) (domain or fragment)”: the figures for the pKd in experiment [6] and in experiment [7] were 6.64 and 7.52, respectively.

As for “NCOR1 class III NLS peptide (from UniProt O75376) pS1242 peptide”, the “binding against the reference” value in experiment [1] (sites S1242) is recorded as “same”.
